# Biological target: SARS-CoV-2 spike (S) protein, expressed from a synthetic S gene (SARS-CoV-2, UniProt P0DTC2)
# Experiment: cell-based or functional assay
binder,measurement,value
"HVLGDISGINASVVQIQKEIDRLNEVAKNLHESLIYLQE [peptide #121 (mutated HR2 39-mer, 'Highest Affinity')]","IC50, SARS-CoV-2 Spike-mediated cell-cell fusion",720 nM
same,"IC50, SARS-CoV-2 pseudovirus infection in Calu-3 cells",160 nM
same,"IC50, SARS-CoV-2 pseudovirus infection in VeroE6",> 10000 nM
same,"IC50, TMPRSS2-dependent plasma membrane pathway in VeroE6-TMPRSS2",< 1000 nM
